ΔM (Da): change in molecular weight of the ACP after treatment by PPT, MALDI-TOF mass spectrometry (in vitro phosphopantetheinylation) and ΔM (Da): gain in molecular weight of the ACP after treatment by PPT, MALDI-TOF mass spectrometry (in vitro phosphopantetheinylation) data for one substance are collected here from patent publication US20190040477.

Data set [1] deals with GST-mRtACPII (S1253A mutant of the second ACP domain of Rhodosporidium toruloides Fas2, residues 1213-1375, as GST fusion protein).
The subject of data set [2] is GST-mRtACPI (S1062A mutant of the first ACP domain of Rhodosporidium toruloides Fas2, residues 1022-1184, as GST fusion protein).
In data set [3] the test system is GST-wRtACPI (wild type first ACP domain of Rhodosporidium toruloides Fas2, residues 1022-1184, as GST fusion protein).
The test system of data set [4] is GST-wRtACPII (wild type second ACP domain of Rhodosporidium toruloides Fas2, residues 1213-1375, as GST fusion protein).

Turning to “GST-RtPPT (phosphopantetheinyl transferase domain of Rhodosporidium toruloides Fas2, residues 2809-2928, as GST fusion protein)”, the ΔM (Da): change in molecular weight of the ACP after treatment by PPT, MALDI-TOF mass spectrometry (in vitro phosphopantetheinylation) worked out at 46 Da in data set [1] and 2 Da in data set [2]. The ΔM (Da): gain in molecular weight of the ACP after treatment by PPT, MALDI-TOF mass spectrometry (in vitro phosphopantetheinylation) in data set [3] turned out to be 332 Da; in data set [4], 322 Da.
